The text below walks through data of IntAct's records for PubMed 34927784.

The target in one test is erep1_human ENTREP1 (UniProt Q15884).
A further test addresses cxcr4_human CXCR4 (UniProt P61073).

Chain of E3 ubiquitin-protein ligase Itchy homolog (Homo sapiens), Q96J02-2 C830A (Q96J02 other isoform, or with tags, fused parts or gaps C830A): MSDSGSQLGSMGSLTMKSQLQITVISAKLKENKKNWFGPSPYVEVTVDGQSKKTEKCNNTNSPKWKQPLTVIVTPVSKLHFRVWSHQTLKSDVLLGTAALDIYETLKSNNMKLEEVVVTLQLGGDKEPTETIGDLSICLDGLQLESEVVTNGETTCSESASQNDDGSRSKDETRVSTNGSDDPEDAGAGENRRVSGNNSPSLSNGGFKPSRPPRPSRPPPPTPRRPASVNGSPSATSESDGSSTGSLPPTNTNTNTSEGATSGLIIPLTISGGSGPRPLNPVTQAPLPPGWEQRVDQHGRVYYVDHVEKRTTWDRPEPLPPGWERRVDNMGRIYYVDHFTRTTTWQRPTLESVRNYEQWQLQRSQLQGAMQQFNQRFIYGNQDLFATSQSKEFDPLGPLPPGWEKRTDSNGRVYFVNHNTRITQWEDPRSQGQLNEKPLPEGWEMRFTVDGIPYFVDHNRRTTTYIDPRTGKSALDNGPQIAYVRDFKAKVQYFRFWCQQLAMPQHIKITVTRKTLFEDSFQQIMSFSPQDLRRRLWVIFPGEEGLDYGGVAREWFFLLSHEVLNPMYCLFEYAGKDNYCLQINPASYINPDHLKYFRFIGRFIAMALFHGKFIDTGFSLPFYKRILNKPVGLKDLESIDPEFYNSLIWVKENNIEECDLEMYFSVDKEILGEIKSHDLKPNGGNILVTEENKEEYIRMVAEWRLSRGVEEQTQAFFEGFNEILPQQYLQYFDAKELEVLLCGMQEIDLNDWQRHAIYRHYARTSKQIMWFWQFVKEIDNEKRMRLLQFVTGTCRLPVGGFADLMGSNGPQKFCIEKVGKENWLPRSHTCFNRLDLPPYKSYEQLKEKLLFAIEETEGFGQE
Chain of erep1_human ENTREP1 (Q15884 whole entry): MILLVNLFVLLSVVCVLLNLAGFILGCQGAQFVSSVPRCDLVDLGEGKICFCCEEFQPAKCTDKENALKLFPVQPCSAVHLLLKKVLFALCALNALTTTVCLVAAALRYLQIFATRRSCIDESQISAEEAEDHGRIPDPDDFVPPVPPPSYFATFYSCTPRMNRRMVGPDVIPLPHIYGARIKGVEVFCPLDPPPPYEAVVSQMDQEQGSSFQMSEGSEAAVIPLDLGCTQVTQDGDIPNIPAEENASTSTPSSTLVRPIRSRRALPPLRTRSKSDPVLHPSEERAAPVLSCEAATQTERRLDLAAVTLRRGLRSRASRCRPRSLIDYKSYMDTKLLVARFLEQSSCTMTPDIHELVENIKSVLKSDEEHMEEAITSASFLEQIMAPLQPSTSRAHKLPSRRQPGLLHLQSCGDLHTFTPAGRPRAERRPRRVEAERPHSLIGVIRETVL
Chain of cxcr4_human CXCR4 (P61073 whole entry): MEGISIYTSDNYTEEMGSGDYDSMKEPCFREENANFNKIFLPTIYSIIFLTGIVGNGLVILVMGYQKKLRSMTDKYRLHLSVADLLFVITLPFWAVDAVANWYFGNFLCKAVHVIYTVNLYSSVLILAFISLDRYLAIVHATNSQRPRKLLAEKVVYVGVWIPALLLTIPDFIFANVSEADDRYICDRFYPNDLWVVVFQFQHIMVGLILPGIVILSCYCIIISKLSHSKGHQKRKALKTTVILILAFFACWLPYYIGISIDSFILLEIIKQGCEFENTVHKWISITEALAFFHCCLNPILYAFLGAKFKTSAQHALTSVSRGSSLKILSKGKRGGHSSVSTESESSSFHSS

Consider “E3 ubiquitin-protein ligase Itchy homolog (Homo sapiens), Q96J02-2 C830A”, for which the “effect of a mutation on the interaction” value with erep1_human ENTREP1 and with cxcr4_human CXCR4 was “with no effect” throughout.
